Tests used:
human myotubes = assay: Acetylcholine-induced calcium flux assay in human myotubes (FLIPR); assay type: cell-based; conditions: antibody 0.01 μM to 1 μM, 1 hour incubation, 20 uM acetylcholine
Experimental: CACNG1 is the γ1 subunit of the skeletal muscle specific L-type calcium channel, (dihydropyridine receptor), though genetic deletion of CACNG1 appears to have no major impact on skeletal muscle function. To determine whether antibodies that bind CACNG1 impact muscle function, a calcium flux assay was performed on human myotubes that were incubated with CACNG1 antibodies to determine whether these antibodies affect acetylcholine-induced calcium release.
Human skeletal myoblasts (Cook Myosite, Inc.) were plated at 10,000 cells/well of a 96-well plate and were differentiated for 7 days into myotubes. On the final day of differentiation, media was replaced with 50 μL of FLIPR calcium 5 dye with probenecid (Invitrogen) and 50 uL of assay buffer (0.1% BSA-DMEM) per well. CACNG1 and isotype control antibodies were serial diluted in assay buffer and added to the cells and incubated at 37° C. in a 5% CO2 incubator for 1 hour prior to the calcium flux assay. Nicardipine hydrochloride (Sigma) was added to untreated wells to serve as a control for calcium channel blockade. After 1 hour, acetylcholine (Sigma) was added at a 20 uM final concentration to induce myotube calcium release, and plates were assayed on a FLIPR Tetra (Molecular Devices, LLC).

human CACNG1 nanodisc = target: T1, human CACNG1 nanodisc (Homo sapiens, UniProt Q06432); assay: Biacore binding kinetics of anti-CACNG1 monoclonal antibodies to human CACNG1 nanodisc, antigen capture format; conditions: 25° C., 1:1 binding model
T1 construct: made in house
Experimental: Equilibrium dissociation constants (KD values) for nanodisc embedded human CACNG1 expressed with a C-terminal PADRE-Flag-His tag (human CACNG1 nanodisc) binding to purified anti-hCACNG1 antibodies were determined using a real-time surface plasmon resonance biosensor technology with a Biacore T200 instrument. The CM5 Biacore sensor surface was derivatized by amine coupling with a monoclonal mouse anti-His antibody (Cytiva; Marlborough, MA). All Biacore binding studies were performed in a buffer composed of 0.01M HEPES, 0.15M NaCl, 1 mM CaCl2), 0.5 mM MgCl2, pH 7.4 (HBS-N++ running buffer). Different concentrations of anti-hCACNG1 antibodies (ranging from 300 nM to 12 nM in 5-fold serial dilutions) prepared in HBS-N++ running buffer were injected over the captured human CACNG1 nanodisc at a flow rate of 30 μL/minute. Antibody association was monitored for 2 minutes while dissociation was monitored in HBS-N++ running buffer for 5 minutes. At the end of each cycle, the human CACNG1 nanodisc capture surface was regenerated using three 10 second injections of 10 mM Gly pH1.5. All binding kinetics experiments were performed at 25° C.
The specific SPR-Biacore sensorgrams were obtained by a double referencing procedure. The double referencing was performed by first subtracting the signal of each injection over a reference surface (anti-His) from the signal over the experimental surface (anti-His captured human CACNG1 nanodisc) thereby removing contributions from refractive index changes. In addition, running buffer injections were performed to allow subtraction of the signal changes resulting from the dissociation of captured antibodies from the coupled anti-His surface. Kinetic association (ka) and dissociation (kd) rate constants were determined by fitting the real-time sensorgrams to a 1:1 binding model using Scrubber v2.0c curve fitting software. Binding dissociation equilibrium constants (KD) and dissociative half-lives (t1/2) were calculated from the kinetic rate constants as: […]

[1] = test system: wildtype or CACNG1 knockout myofibers; assay: Antibody binding to single myofibers ex vivo; assay type: cell-based, mouse; conditions: 100 nM antibody, 30 minutes
Experimental: (§1) Following confirmation of CACNG1 antibody binding to human myotubes, a subset of antibodies was tested for binding to fully mature myofibers ex vivo. Single myofibers were isolated from either wildtype mice, mice that were homozygous for the deletion of CACNG1 (referred to as CACNG1 knockout mice), or mice that were homozygous for the expression of human CACNG1 in place of mouse CACNG1 (referred to as CACNG1^Hu/Hu). The gastrocnemius muscle was removed, collagenase digested, and single myofibers were isolated, washed, and incubated overnight at 37° C. at 5% C02, in DMEM+10% horse serum. Following overnight incubation, single myofibers were incubated with 100 nM of each CACNG1 antibody or an isotype control antibody for 30 minutes. Myofibers were then washed twice in DMEM+10% horse serum, and subsequently incubated with 10 ug/mL of fluorescent-conjugated secondary antibodies for 30 minutes, washed twice in DMEM+10% horse serum, and then fixed with 4% paraformaldehyde (PFA) for 15 minutes at room temperature. Single fibers were then washed twice with PBS, stained with Hoechst for 5 minutes, washed once more with PBS, then transferred to microscope slides, coverslipped, and imaged using a Zeiss LSM 710 confocal microscope.

CACNG1^Hu/Hu myofibers = assay: Antibody binding to single myofibers ex vivo; assay type: cell-based, mouse; conditions: 100 nM antibody, 30 minutes
Experimental: as §1

T1 sequence (Q06432 whole entry): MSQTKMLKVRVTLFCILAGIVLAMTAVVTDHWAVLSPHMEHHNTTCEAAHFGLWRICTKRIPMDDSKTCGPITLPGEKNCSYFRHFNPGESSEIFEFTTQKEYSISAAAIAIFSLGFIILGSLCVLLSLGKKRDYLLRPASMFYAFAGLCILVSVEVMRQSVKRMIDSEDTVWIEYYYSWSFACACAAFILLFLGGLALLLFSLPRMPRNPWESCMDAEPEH

B1: H2aM31944N: anti-hCACNG1 antibody, HCVR/LCVR SEQ ID NOs: 82/90 (antibody, V domains shown)
VH: QVQLVESGGGVVQPGRSLRLSCEASGITFRNYGMHWVRQAPGKGLEWVAVMWYDGSNKYYADSVKGRFTISRDNSKNTVYLQMNSLRAEDTAVYYCARRGHIATAAPFDYWGQGTLVTVSS
VL: DIQMTQSPSSLSASVGDRVTISCRASQSISSYLNWYQQKPGKAPKVLMYAASSLQSGVPSRFSGSGSGTDFTLTISSLQPEDFATYYCQQSYSTPPITFGQGTRLEIK
effect on acetylcholine-induced calcium flux (human myotubes): do not inhibit acetylcholine-induced calcium flux
ka (human CACNG1 nanodisc): 231000 M⁻¹ s⁻¹
kd (human CACNG1 nanodisc): 0.00395 s⁻¹

B2: H2aM31941N: anti-hCACNG1 antibody, HCVR/LCVR SEQ ID NOs: 114/122 (antibody, V domains shown)
VH: QVQLVQSGAEVKKPGASVKVSCKASGYAFTTYGITWVRQAPGQGLEWMGWISAYNGNTNYAEKVQGRFTMTTDTSTNTAYMELRSLRSDDTAVYFCARKGHYGSGTYYNPFGFDFWGQGTMVTVSS
VL: EIMLMQSPGTLSLSPGERATLSCRASQSVSSSYLAWYQQKPGQAPRLLIYGASSRATDIPDRFSGSGSGTDFTLTISRLEPEDFAVYFCQQYYGSPWTFGQGTKVEIK
binding to wildtype or CACNG1 knockout myofibers [1]: did not bind to wildtype or CACNG1 knockout myofibers
binding to CACNG1^Hu/Hu myofibers ex vivo (CACNG1^Hu/Hu myofibers): demonstrated binding to CACNG1^Hu/Hu myofibers ex vivo
ka (human CACNG1 nanodisc): 342000 M⁻¹ s⁻¹
kd (human CACNG1 nanodisc): 0.000406 s⁻¹

B3: REGN7660: anti-hCACNG1 antibody, HCVR/LCVR SEQ ID NOs: 130/138 (antibody, V domains shown)
VH: EVQLVESGGGLVQPGGSLKLSCTASGLTLSDSAMHWVRQASGKGLEWVGRIRNKANRYATEYAASVKGRFTISRDDSKNTAYLQMNSLKTEDTAVYYCTRNWKIFLFDYWGQGTLVTVSS
VL: EIVLTQSPGTLTLSPGERATLSCRASQSVGSKYLAWFQQKRGQAPRLLIYGASSRTSGIPDRISGSGSGTDFTLTISRLEPEDFAVYYCQQYGSSPWTFGQGTKVEIK
ka (human CACNG1 nanodisc): 1.93e+06 M⁻¹ s⁻¹
kd (human CACNG1 nanodisc): 0.0243 s⁻¹

B4: REGN9909: anti-hCACNG1 antibody, HCVR/LCVR SEQ ID NOs: 146/154 (antibody, V domains shown)
VH: EVQLLESGGGLVQPGGSLRLSCAASGFTFNNYGMSWVRQGPGKGLEWVSSISGSGGTTFYADSVKGRFTISRDNSKNTLYLQMNSLRAEDTAVYYCGKGGYCSSSGCRHYGMDVWGQGTTVTVSS
VL: QSVLTQPPSASGTPGQRVTISCSGSSSNIGNNYIYWYQRLPGTTPKLLIYRNNQRPSGVPDRFSGSKSGTSASLAISGLRSEDEADYYCAAWDDTLSGYVFGTGTKVTVL
ka (human CACNG1 nanodisc): 331000 M⁻¹ s⁻¹
kd (human CACNG1 nanodisc): 0.00137 s⁻¹

B5: REGN10713: anti-hCACNG1 antibody, HCVR/LCVR SEQ ID NOs: 162/170, wildtype hIgG1 (antibody, V domains shown)
VH: EVQLVESGGNLVQPGGSLRLSCAASGFTFTSHAMNWVRQAPGKGLEWVSVITGRGFDTHYADSVKGRFTISRDISKNTLYLQMNSLRAEDTAVYYCAKGLYDSGNYYIDYWGQGTLVTVSS
VL: QSVLTQPPSVSAAPGQKVTISCSGSSSNIGNNYVSWYQQLPGTAPKLLIYDNNKRPSGIPDRFSGSKSGTSATLGITGLQTGDEADYYCGTWDLSLSFNWVFGGGTKLTVL
modifications: hIgG1
ka (human CACNG1 nanodisc): 74200 M⁻¹ s⁻¹
kd (human CACNG1 nanodisc): 4.72e-05 s⁻¹

B6: REGN10715: anti-hCACNG1 antibody, HCVR/LCVR SEQ ID NOs: 18/26, wildtype hIgG1 (antibody, V domains shown)
VH: QVQLQQWGAGLLKPSATLSRTCAVYGGSFSGYYWNWIRQSPGKGLEWIGEILHSGRTNYNPSLKSRVTISVDTSKNQFSLKLTSVTAADTAVYYCAGRIAARHGWFDPWGQGTLVTVSS
VL: DIQMTQSPSSVSTSVGDRVTISCRASQDIRKWLAWYQQKPGKAPKLLIYATSSLQSGVPSRFSGSGSGTDFTLTISSLQPEDFATYFCQQANSFPFTFGQGTKLEIK
modifications: hIgG1
ka (human CACNG1 nanodisc): 152000 M⁻¹ s⁻¹
kd (human CACNG1 nanodisc): 0.000301 s⁻¹

B7: REGN10716: anti-hCACNG1 antibody, HCVR/LCVR SEQ ID NOs: 50/58, wildtype hIgG1 (antibody, V domains shown)
VH: QVQLQESGPGLVKPSETLSLTCTVSGDSINNYYWTWLRQPPGKGLEWIGYIYYSGSANYNPSLKSRVTISVDTSKNQFSLKLNSVTAADTAVYYCARGAVKYFRHWGQGTLVTVSS
VL: EIVLTQSPGTLSLSPGERATLSCRASQTINHNNLAWYQQRPGQAPRLLIYGASNRATAIPDRFSGSGSGTDFTLTISRLEPEDFEVYSCQQYGSLPLTFGGGTKVEIK
modifications: hIgG1
ka (human CACNG1 nanodisc): 730000 M⁻¹ s⁻¹
kd (human CACNG1 nanodisc): 8.36e-05 s⁻¹

B8: REGN10717: anti-hCACNG1 antibody, HCVR/LCVR SEQ ID NOs: 34/42, wildtype hIgG1 (antibody, V domains shown)
VH: QVQLVESGGGVVQPGRSLRLSCAASGFTFSTYGMHWVRQAPGKGLEWVAVIWHDGSDKYYVDSVKGRFSIARDNSKNTLYLQMNSLRVEDTGIYYCARRGIRGTVFDHWGLGTLVTVSS
VL: DIQMTQSPSTLSASVGDRVTLTCRASQSISNKLAWYQQKPGKAPNLLIYKASNLESGVPSRFSGSGSGTEFTLTISSLQPDDFATYYCQQYNSYSWTFGQGTKVEIK
modifications: hIgG1
ka (human CACNG1 nanodisc): 294000 M⁻¹ s⁻¹
kd (human CACNG1 nanodisc): 0.0304 s⁻¹

Reference: patent US20260234660A1, “TREATMENT OF MUSCLE RELATED DISORDERS WITH ANTI-HUMAN CACNG1 ANTIBODIES” (Regeneron Pharmaceuticals, Inc., priority 2023, published 2026)
